Experimental data reported in patent publication US20260125472A1 (HEFEI TG IMMUNOPHARMA, published 2026).

Tests used:
[1] = target: T1, PDL1 on A-375 melanoma cells, HCT-15 colorectal cancer cells and A549 lung cancer cells (UniProt Q9NZQ7 19-290, limits assumed); assay: flow cytometry, A549 cells, MFI [panel B]
T1 construct: whole, on cells
Summary of the method: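 Cells were blocked with goat serum at 4° C for 30 min, then incubated with serially diluted bispecific antibodies or hIgG1LALA control at 4° C for 30 min. Bound antibody was detected with Alexa-647 anti-human IgG (4° C, 30 min, dark) and read by flow cytometry.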

PDL1 protein [2] = target: T2, PDL1 protein (UniProt Q9NZQ7 19-238); assay: ELISA, coated PDL1 protein, OD450 [panels A, B]
T2 construct: Bought recombinant protein
Protocol: (3) PDL1 protein (purchased from Acro) was diluted to 2 μg/ml with PBS buffer, added to a 96-well plate at a volume of 100 μL/well, and placed at 4° C. overnight. The PBS buffer in the 96-well plate was aspirated, and the plate was washed 6 times with PBST (pH 7.2 PBS containing 0.10% Tween 20) buffer. Then, PBS/10% BSA was added at 200 μL/well and incubated at 37° C. for 2 h for blocking. The blocking solution was removed, and the plate was washed six times with PBST. Then, the to-be-tested bispecific antibodies serially diluted with PBST/0.05% BSA, Cross3×PDL1, Cross303×PDL1, Cross307×PDL1, Cross308×PDL1, Cross309×PDL1, Cross310×PDL1, Cross311×PDL1, Cross312×PDL1, Cross313×PDL1, Cross314×PDL1, Cross316×PDL1, Cross317×PDL1, Cross318×PDL1, Cross323×PDL1, Cross325×PDL1, Cross326×PDL1, and control IgG1LALA (purchased from Bio-Tech) were added at 100 μL/well, and incubated at 37° C. for 1 h. The reaction system was removed, and the plate was washed 6 times with PBST. Then, the cells were incubated at 37° C. for 1 h with HRP (horseradish peroxidase)-labeled anti-human secondary antibody (Fab specific) (purchased from Sigma) serially diluted with PBST/0.05% BSA at 100 μL/well. After the plate was washed six times with PBST, TMB (tetramethylbenzidine) was added at 80 μL/well and incubated at room temperature for 3 min. […] The absorbance was read at 450 nm using a microplate reader.

PDL1 protein [3] = target: T2, PDL1 protein; assay: ELISA, coated PDL1 protein, OD450 [panel A]
Summary of the method: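 PDL1 protein coated at 2 μg/ml overnight at 4 °C, blocked with PBS/10% BSA; serially diluted bispecific antibodies or control IgG1LALA bound 1 h at 37 °C. Detection with HRP anti-human Fab secondary antibody and TMB for 3 min, stopped with sulfuric acid, absorbance at 450 nm.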

CD3E&D protein = target: T3, CD3E&D protein (UniProt P04234 22-105); assay: ELISA, coated CD3E&D protein, OD450 [panel A]
T3 construct: Purchased from Acro; also called CD3 E&D antigens; CD3E&D antigen protein
Excerpt: In this example, the binding properties of the CD3×Trop2 and CD3×PDL1 bispecific antibody (the production method and the amino acid sequences of the heavy and light chains were shown in Example 1) were detected by using ELISA. The CD3E&D, Trop2, or PDL1 protein was coated onto 96-well plates by inventors, and the strength of the signal after the addition of the antibody was used to determine the binding properties of the antibody and the corresponding protein.
(1) CD3E&D protein (purchased from Acro) was diluted to 2 μg/ml with PBS buffer, added to a 96-well plate at a volume of 100 μL/well, and placed at 4° C. overnight. The PBS buffer in the 96-well plate was aspirated, and the plate was washed 6 times with PBST (pH 7.2 PBS containing 0.1% Tween 20) buffer. Then, 200 μL/well PBS/10% BSA was added and incubated at 37° C. for 2 h for blocking. The blocking solution was removed, and the plate was washed 6 times with PBST. […] The absorbance was read at 450 nm using a microplate reader.

CD3 on CD8 T cells = target: T4, CD3 on CD8 T cells (Homo sapiens (Human), UniProt P07766 23-207); assay: flow cytometry, CD8 T cells in PBMCs, binding ratio % [panel A]
T4 construct: Native CD3 complex on CD8 T cells among PBMCs; also called T cells (PBMCs gated with anti-human CD8 antibody)
Protocol: (1) PBMCs were diluted to 2×10⁶/ml with PBS and added to a 1.5 ml EP tube at 100 μl/tube, goat serum was added thereto at 10 μl/tube. The cells were blocked at 4° C. for 30 min. The serially diluted bispecific antibodies, Cross3×Trop2, Cross303×Trop2, Cross307×Trop2, Cross308×Trop2, Cross309×Trop2, Cross310×Trop2, Cross311×Trop2, Cross312×Trop2, Cross313×Trop2, Cross314×Trop2, Cross316×Trop2, Cross317×Trop2, Cross318×Trop2, Cross323×Trop2, Cross325×Trop2, Cross326×Trop2, Cross3×PDL1, Cross313×PDL1, Cross316×PDL1, Cross325×PDL1, and control hIgG1LALA (purchased from Bio-Tech) were added and incubated at 4° C. for 30 min. 1 ml of PBS was added to the EP tube, followed by centrifugation at 3500 rpm for 5 min at 4° C. The supernatant was discarded, and the system was washed again with PBS. After centrifugation, the supernatant was discarded, and the cells were resuspended with PBS at 100 μl/tube. 1 μl/tube Alexa-647-labeled goat anti-human IgG secondary antibody (purchased from Jackson lab) and 0.5 μl/tube PerCP-Cy5.5-labeled anti-human CD8 antibody were added and incubated at 4° C. in the dark for 30 min. The cells were washed twice with PBS. After centrifugation, the supernatant was discarded. The cells were resuspended with 200 μl/tube of PBS and assay is performed by flow cytometry.

T2 sequence (Q9NZQ7 19-238 limits assumed): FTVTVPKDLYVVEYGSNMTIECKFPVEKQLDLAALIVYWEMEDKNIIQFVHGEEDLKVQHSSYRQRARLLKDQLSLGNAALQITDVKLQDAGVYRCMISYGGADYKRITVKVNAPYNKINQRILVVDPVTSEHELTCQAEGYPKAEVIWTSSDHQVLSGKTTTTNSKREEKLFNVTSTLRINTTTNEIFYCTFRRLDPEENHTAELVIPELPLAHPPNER
T1 sequence (Q9NZQ7 19-290 limits assumed): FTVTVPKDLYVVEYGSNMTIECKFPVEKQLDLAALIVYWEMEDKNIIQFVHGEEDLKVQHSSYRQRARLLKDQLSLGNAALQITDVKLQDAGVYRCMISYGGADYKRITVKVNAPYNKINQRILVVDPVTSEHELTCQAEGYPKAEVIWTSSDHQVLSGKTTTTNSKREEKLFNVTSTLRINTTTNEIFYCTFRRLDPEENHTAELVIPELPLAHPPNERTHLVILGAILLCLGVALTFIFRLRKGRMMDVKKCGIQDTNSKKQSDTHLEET
T4 sequence (P07766 23-207 limits assumed): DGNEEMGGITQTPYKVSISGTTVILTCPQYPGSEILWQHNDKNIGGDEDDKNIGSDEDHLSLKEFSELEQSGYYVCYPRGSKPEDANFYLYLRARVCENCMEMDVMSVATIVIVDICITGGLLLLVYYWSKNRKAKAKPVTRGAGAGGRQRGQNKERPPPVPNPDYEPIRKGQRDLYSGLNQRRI
T3 sequence (chain, as listed by the source limits assumed, chain 1 of 2): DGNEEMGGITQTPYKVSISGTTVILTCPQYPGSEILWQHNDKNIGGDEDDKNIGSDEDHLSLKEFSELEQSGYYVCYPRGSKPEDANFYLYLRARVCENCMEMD
T3 sequence (P04234 22-105 limits assumed, chain 2 of 2): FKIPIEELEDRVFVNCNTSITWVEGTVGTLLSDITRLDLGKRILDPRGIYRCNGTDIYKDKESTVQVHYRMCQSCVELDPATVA

B1: Cross3×PDL1 (bispecific antibody, human IgG1, kappa, L234A L235A)
scFv: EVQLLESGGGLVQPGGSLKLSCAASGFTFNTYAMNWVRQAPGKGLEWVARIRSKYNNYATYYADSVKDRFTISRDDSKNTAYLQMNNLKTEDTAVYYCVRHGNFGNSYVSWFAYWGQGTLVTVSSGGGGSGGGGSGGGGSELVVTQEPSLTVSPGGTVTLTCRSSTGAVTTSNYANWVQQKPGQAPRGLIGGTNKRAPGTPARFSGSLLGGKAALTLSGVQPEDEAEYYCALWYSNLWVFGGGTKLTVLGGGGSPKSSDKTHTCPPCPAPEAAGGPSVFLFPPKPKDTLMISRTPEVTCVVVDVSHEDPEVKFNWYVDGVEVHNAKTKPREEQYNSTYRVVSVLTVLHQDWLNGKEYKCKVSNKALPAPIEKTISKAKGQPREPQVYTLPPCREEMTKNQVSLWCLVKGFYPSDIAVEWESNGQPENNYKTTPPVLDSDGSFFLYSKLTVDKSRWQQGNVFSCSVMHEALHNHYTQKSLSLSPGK
heavy: QVQLVQSGAEVKKPGASVKVSCKASGYSFTGYYMHWVRQAPGQGLEWIGRINPYNGATTYSQNFKDRATMTVDTSISTAYMELSRLRSDDTAVYYCVPTGMGYFLMDYWGQGTLVTVSSASTKGPSVFPLAPSSKSTSGGTAALGCLVKDYFPEPVTVSWNSGALTSGVHTFPAVLQSSGLYSLSSVVTVPSSSLGTQTYICNVNHKPSNTKVDKKVEPKSCDKTHTCPPCPAPEAAGGPSVFLFPPKPKDTLMISRTPEVTCVVVDVSHEDPEVKFNWYVDGVEVHNAKTKPREEQYNSTYRVVSVLTVLHQDWLNGKEYKCKVSNKALPAPIEKTISKAKGQPREPQVCTLPPSREEMTKNQVSLSCAVKGFYPSDIAVEWESNGQPENNYKTTPPVLDSDGSFFLVSKLTVDKSRWQQGNVFSCSVMHEALHNHYTQKSLSLSPGK
light: DIQLTQSPSFLSASVGDRVTITCKASQDVGSAVVWYQQKPGKAPKLLIYWASTRHTGVPSRFSGSGSGTEFTLTISSLQPEDFATYFCQQFTSYPTFGQGTKLEIKRTVAAPSVFIFPPSDEQLKSGTASVVCLLNNFYPREAKVQWKVDNALQSGNSQESVTEQDSKDSTYSLSSTLTLSKADYEKHKVYACEVTHQGLSSPVTKSFNRGEC
notes: also called parent Cross3×PDL1 bispecific antibody
EC50 (read off the curve) [1]: ~1 µg/mL
EC50 (read off the curve) (PDL1 protein [2]): ~0.2 µg/mL

B2: Cross316×PDL1 (bispecific antibody, human IgG1, kappa, L234A L235A)
scFv: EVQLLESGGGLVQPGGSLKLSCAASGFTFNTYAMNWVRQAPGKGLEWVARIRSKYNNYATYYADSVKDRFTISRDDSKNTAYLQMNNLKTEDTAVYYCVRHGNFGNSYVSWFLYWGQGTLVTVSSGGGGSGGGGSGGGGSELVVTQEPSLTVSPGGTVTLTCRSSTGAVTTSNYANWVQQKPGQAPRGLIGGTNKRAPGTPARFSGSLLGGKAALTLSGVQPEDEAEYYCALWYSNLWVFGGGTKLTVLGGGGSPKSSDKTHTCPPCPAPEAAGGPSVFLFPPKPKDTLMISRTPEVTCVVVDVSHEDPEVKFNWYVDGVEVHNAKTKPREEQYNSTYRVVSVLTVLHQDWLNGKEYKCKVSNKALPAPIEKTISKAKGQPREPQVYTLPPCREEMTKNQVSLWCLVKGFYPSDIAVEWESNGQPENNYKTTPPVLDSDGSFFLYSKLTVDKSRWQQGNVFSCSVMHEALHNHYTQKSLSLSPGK
heavy: B1 heavy
light: B1 light
EC50 (read off the curve) [1]: ~1 µg/mL
EC50 (read off the curve) (PDL1 protein [3]): ~0.2 µg/mL
EC50 (read off the curve) (CD3E&D protein): ~0.8 µg/mL
EC50 (read off the curve) (CD3 on CD8 T cells): ~0.2 µg/mL
